Assay results from the supplement of paper PMC9732359.
± gives the uncertainty stated by the source.

Experiment: protein stability index of a GFP-peptide fusion (yeast GPS) (PSI 1-4); higher = more stable; sorted into four equal gates, so the index is relative within each strain
Outline: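 Plasmids in a pooled yeast library fused tiled 17-residue yeast protein peptides downstream of GFP and also expressed Cherry. Mid-log cultures grown without leucine were sorted into four equal gates by GFP/Cherry fluorescence ratio. Each gate's plasmids were PCR-amplified and Illumina-sequenced, and reads were matched to strains by barcodes. The protein stability index is derived by multiplying each gate's read frequency by its gate number and summing the results.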

| Sequence | protein stability index (doa10∆) | protein stability index (pdr5∆) | protein stability index (san1∆) | protein stability index (ubr1∆) |
| --- | --- | --- | --- | --- |
| PLLYNSLCTVWKPNPSY [SRB5] | 1.99 ± 0.11 | 1.68 ± 0.062 | 2.21 ± 0.11 | 2.13 ± 0.1 |
| PKARQELPTQLALEIIV [RRP46] | 1.77 ± 0.046 | 1.76 ± 0.045 | 1.52 ± 0.11 | 2.07 ± 0.054 |
| KCPLLVEVDITLSPNVT [GRR1] | 1.8 ± 0.058 | 1.83 ± 0.065 | 1.76 ± 0.088 | 2.51 ± 0.071 |
| PSYSPTSPSYSPTSPSY [RPO21] | 2.65 ± 0.03 | 2.884 ± 0.028 | 2.859 ± 0.028 | 2.815 ± 0.023 |
| HMSTYLKIYKVGDIVDI [RPL21B] | 1.69 ± 0.036 | 1.64 ± 0.037 | 1.95 ± 0.052 | 1.95 ± 0.036 |
| ALFVFYSPNTLGHPDNY [COB] | 1.39 ± 0.09 | 1.36 ± 0.069 | 2.06 ± 0.11 | 1.87 ± 0.054 |
| HPFVFEEVEDQINPTRE [SNF2] | 3.36 ± 0.077 | 3.5 ± 0.13 | 2.94 ± 0.17 | 3.13 ± 0.086 |
| ELSDKEIYTVEDRPPEY [ISW2] | 3.34 ± 0.13 | 3.45 ± 0.15 | 3.33 ± 0.17 | 3.42 ± 0.12 |
| SCKDSQLKWAQNTIDDT [YIL149C/MLP2] | 2.15 ± 0.042 | 2.89 ± 0.057 | 2.65 ± 0.046 | 2.74 ± 0.053 |
| TNFNEITNTDETITTKR [SWP82] | 3.13 ± 0.058 | 3.25 ± 0.061 | 3.08 ± 0.067 | 3.32 ± 0.045 |
| DELMVIYISNLVRSIIA [RPN8] | 2.44 ± 0.28 | 3.22 ± 0.17 |  | 3.24 ± 0.11 |
| NMNLNPQMFLNQQAQAR [GAL11] | 1.92 ± 0.035 | 2.42 ± 0.035 | 2.37 ± 0.056 | 2.04 ± 0.03 |
| VVDRESDIPKTTVQVAE [PRE4] | 2.6 ± 0.11 | 2.99 ± 0.1 | 2.8 ± 0.13 | 3.06 ± 0.076 |
| MTIPHMKYAVSKTSENK [SIR2] | 3.14 ± 0.12 | 3.07 ± 0.16 | 2.75 ± 0.11 | 3.06 ± 0.1 |
| ELLKSSLQKAGSKMEAK [AAR2] | 3.23 ± 0.077 | 3.35 ± 0.085 | 3.05 ± 0.079 | 3.07 ± 0.079 |
| LELIGVLSINPDMYERK [MED7] | 2.73 ± 0.077 | 2.98 ± 0.086 | 2.89 ± 0.053 | 2.73 ± 0.061 |
| AEEKREAVIDEKLEVIA [ITC1] | 3.04 ± 0.15 | 2.62 ± 0.16 | 3.03 ± 0.14 | 3.13 ± 0.082 |
| QRSNISTAIKSLVALGI [CDC53] | 1.86 ± 0.047 | 2.82 ± 0.054 | 2.82 ± 0.049 | 2.48 ± 0.037 |
| VTIWYRAPELLLGARHY [SSN3] | 1.9 ± 0.1 | 1.85 ± 0.096 | 2.07 ± 0.15 | 1.9 ± 0.072 |
| QILTVDPKTSLRIVKPT [RPC82] | 3.07 ± 0.21 | 2.99 ± 0.19 | 3.09 ± 0.12 |  |
| SSQLNKLTDEQSSLDVA [SIR3] | 2.66 ± 0.088 | 2.93 ± 0.081 | 2.65 ± 0.09 | 2.97 ± 0.056 |
